Read-outs that look alike come from different tables or passages of the source.
Assays:
hIL-13 = hIL-13 (human, UniProt P35225 35-146, limits assumed); test: cell-based or functional assay
recombinant human IL-18 [1] = target: T1, recombinant human IL-18 (human, UniProt Q14116 37-193); test: cell-based or functional assay
recombinant human IL-18 [2] = target: T1, recombinant human IL-18; test: cell-based or functional assay; remark: listed apart in the source
human IL-12 [3] = target: T2, human IL-12 (human, UniProt P29459 23-219; P29460 23-328, biotinylated in the ELISA (site not stated)); test: cell-based or functional assay
T2 sequence (looked up) 1: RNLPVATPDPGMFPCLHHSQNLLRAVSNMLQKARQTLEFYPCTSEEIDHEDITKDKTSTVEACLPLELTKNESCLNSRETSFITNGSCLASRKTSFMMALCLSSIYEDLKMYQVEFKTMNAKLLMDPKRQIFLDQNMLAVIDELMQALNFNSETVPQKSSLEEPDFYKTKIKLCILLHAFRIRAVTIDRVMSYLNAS
T2 sequence (looked up) 2: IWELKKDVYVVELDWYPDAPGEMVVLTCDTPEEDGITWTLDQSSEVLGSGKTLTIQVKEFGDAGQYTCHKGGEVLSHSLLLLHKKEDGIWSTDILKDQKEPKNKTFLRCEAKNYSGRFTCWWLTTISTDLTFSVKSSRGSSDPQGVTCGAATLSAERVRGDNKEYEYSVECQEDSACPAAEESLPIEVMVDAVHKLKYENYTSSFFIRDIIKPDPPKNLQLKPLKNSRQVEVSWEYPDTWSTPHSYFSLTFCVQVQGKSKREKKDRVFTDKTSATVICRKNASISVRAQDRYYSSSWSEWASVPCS

human IL-12 [4] = target: T2, human IL-12; test: ELISA, biotinylated IL-12 on streptavidin plates, anti-human IgG detection (column head: ED50)
Protocol: Plates were washed five times with 1× PBST. Biotinylated IL-12 was diluted to 100 ng/ml in 10% superblock/PBST and 100 ml was added to each well. Plates were incubated for 2 hours at room temperature and then washed five times with 1× PBST. Control antibodies (human IgG and 1D4.1) and TVD-Igs were diluted to 1000 ng/ml and serially diluted 1:3 in 10% SB/PBST. Samples were added to the plate at 100 ml per well and incubated for 1 hour at RT. Plates were then washed five times. […] Plates were incubated for 1 hour at Room Temperature and then washed five times. […] Plates were read on a spectrophotometer at OD 450 nm. The EC50 values were determined using sigmoidal curve fit analysis from the binding curve.

Sequence of hIL-13 (P35225 35-146 limits assumed): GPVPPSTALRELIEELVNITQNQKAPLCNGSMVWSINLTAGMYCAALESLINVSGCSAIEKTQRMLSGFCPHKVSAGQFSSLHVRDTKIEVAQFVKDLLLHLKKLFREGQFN

B1: 13C5.5L3F (anti-IL-13 monoclonal antibody) (antibody, V domains shown)
VH: EVTLRESGPGLVKPTQTLTLTCTLYGFSLSTSDMGVDWIRQPPGKGLEWLAHIWWDDVKRYNPALKSRLTISKDTSKNQVVLKLTSVDPVDTATYYCARTVSSGYIYYAMDYWGQGTLVTVSS
VL: DIQMTQSPSSLSASVGDRVTISCRASQDIRNYLNWYQQKPGKAPKLLIFYTSKLHSGVPSRFSGSGSGTDYTLTISSLQPEDIATYYCQQGLTPPLTFGGGTKVEIKR
hIL-13
  neutralization potency (IC50, nM), A-549 bioassay: TARC production: 0.05 nM

B2: mAb 2.5 (anti-hIL-18 monoclonal antibody) (antibody, V domains shown)
VH: EVQLVQSGTEVKKPGESLKISCKGSGYTVTSYWIGWVRQMPGKGLEWMGFIYPGDSETRYSPTFQGQVTISADKSFNTAFLQWSSLKASDTAMYYCARVGSGWYPYTFDIWGQGTMVTVSS
VL: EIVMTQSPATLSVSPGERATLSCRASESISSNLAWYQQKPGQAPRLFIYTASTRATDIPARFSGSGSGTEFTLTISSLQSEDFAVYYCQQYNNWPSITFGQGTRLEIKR
Recombinant human IL-18 [1]
  neutralization potency (IC50, nM), KG-1 bioassay: IFN-γ production: 0.1 nM
Recombinant human IL-18 [2]
  neutralization potency (IC50, nM), KG-1 bioassay: IFN-γ production: 0.58 nM

B3: 1D4.1 (anti-hIL-12 monoclonal antibody) (antibody, V domains shown)
VH: EVTLRESGPALVKPTQTLTLTCTFSGFSLSKSVMGVSWIRQPPGKALEWLAHIYWDDDKYYNPSLKSRLTISKDTSKNQVVLTMTNMDPVDTATYYCARRGIRSAMDYWGQGTTVTVSS
VL: DIVMTQSPDSLAVSLGERATINCKASQSVSNDVAWYQQKPGQPPKLLIYYASNRYTGVPDRFSGSGSGTDFTLTISSLQAEDVAVYYCQQDYNSPWTFGGGTKVEIKR
notes: also called Control monoclonal antibody; parental monoclonal antibody 1D4.1
Human IL-12 [3]
  neutralization potency (IC50, nM), human IL-12 bioassay: IFN-γ release from PHA blast cells: 0.624 nM
Human IL-12 [4]
  EC50: 380 pM

From US20120195900A1 (AbbVie / Abbott, published 2012)
